Ends that are not written are not given here. Me2 = dimethylation (dimethyl-lysine)
Assays:
[1] = target: T1, ASH1L tandem bromodomain-PHD finger (aa 2436-2638) (human, UniProt Q9NR48 2436-2638); assay: NMR solution structure; 0.5 mM ASH1L_(BD-PHD) with H3K4me2 peptide (aa 1-15); 298 K; 200 mM sodium phosphate pH 6.3, 5 mM DTT; conditions: both partners purified
T1 construct: ASH1L, human, bromodomain and PHD finger, aa 2436-2638 (NMR structure sample); 13C/15N-labelled and 75% deuterated; The protein expression section lists ASH1L_(BD-PHD) as aa 2430-2629 (GST fusion, E. coli); the NMR structure section gives aa 2436-2638; also called ASH1L_(BD-PHD)

[2] = target: T2, ASH1L plant homeodomain (PHD) finger, wild type (aa 2579-2629) (human, UniProt Q9NR48 2579-2629); assay: NMR titration; 1H,15N HSQC chemical shift perturbation; unlabelled ligand (histone peptide or ASH1LSET) added to 0.1-0.2 mM 15N-labelled protein; 298 K; 25 mM Tris pH 7.5, 150 mM NaCl, 5 mM DTT; conditions: both partners purified
T2 construct: ASH1L, human, PHD finger, aa 2579-2629; 15N-labelled for NMR; also called ASH1LPHD; ASH1L PHD; source: E. coli BL21 or Rosetta2 (DE3) pLysS, purified (glutathione agarose, SEC)

Row | Binder | binding result [1] | Kd [2] [µM]
1 | ARTK(Me2)QTARKSTGGKA (peptide, UniProt P68431 2-16, looked up, histone H3, residues 1-15) [histone H3K4me2 peptide (aa 1-15 of H3)] | binds | –
2 | ARTK(Me)QTARKSTG (peptide, UniProt P68431 2-13, looked up, histone H3, residues 1-12) [histone H3K4me1 peptide (aa 1-12 of H3)] | – | 119
3 | ARTKQTARKSTG (peptide, UniProt P68431 2-13, looked up, histone H3, residues 1-12) [histone H3K4me0 (unmodified) peptide (aa 1-12 of H3)] | – | 1900

— publication PMC11883000, “Structure-function relationship of ASH1L and histone H3K36 and H3K4 methylation” (Nature Communications, 2025)
